Test results from patent publication CN117624356A (VAZYME MEDICAL CO LTD; HUNAN NOVAZYME MEDICAL TECH CO LTD, dated 2024).

T1: NfL-His重组蛋白 (神经丝轻链蛋白, Neurofilament light chain) (Homo sapiens (Human), UniProt P07196 1-543)
T1 construct: Recombinant, expressed in 293F cells, C-terminal His tag; used as immunogen, sorting antigen and screening antigen; also called NfL-His蛋白
T1 sequence: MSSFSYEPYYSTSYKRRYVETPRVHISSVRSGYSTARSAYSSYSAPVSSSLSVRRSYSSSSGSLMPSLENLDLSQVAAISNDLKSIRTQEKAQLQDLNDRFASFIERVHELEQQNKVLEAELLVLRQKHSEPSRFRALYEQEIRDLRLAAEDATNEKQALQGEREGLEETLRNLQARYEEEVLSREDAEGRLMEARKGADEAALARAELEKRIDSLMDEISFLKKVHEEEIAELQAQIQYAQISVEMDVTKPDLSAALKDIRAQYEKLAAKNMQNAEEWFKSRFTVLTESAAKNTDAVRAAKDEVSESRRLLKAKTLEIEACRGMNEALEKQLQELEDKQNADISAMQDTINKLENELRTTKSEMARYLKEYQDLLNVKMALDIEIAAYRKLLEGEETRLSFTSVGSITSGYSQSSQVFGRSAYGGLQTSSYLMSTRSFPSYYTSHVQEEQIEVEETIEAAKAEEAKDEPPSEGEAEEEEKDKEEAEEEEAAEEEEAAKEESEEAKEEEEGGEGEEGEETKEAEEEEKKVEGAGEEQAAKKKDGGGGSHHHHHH


Assays:
[1] = biological target: T1, NfL-His重组蛋白 (神经丝轻链蛋白, Neurofilament …); assay: sandwich chemiluminescence, NfL at 10000pg/mL, Rabbit anti-NfL mAb on beads as capture, acridinium ester labelled antibody as detection
[2] = biological target: T1, NfL-His重组蛋白 (神经丝轻链蛋白, Neurofilament …); assay: sandwich ELISA, fixed antibody of the pair

binding result [1]	binding result [2]	Binder
binds	–	Anti-NfL-rRmab-1 (antibody, V domains shown, Labelled with acridinium ester as the detection antibody in the chemiluminescence assay; also called NfL特异性抗体; 优选抗体) VH: QSVEESGGRLVTPGTPLTLTCTASGFSLSIHDMSWVRQAPGKGLEWIGLISSNNNTYYASWAKGRFTISKTSTTVDLKITSPTTEDTATYFCARGGFSTDLWGPGTPVTVSS VL: DVVMTQTPASVSEPVGGTVTIKCQASQSIYTYLSWYQQKPGQPPKLLIYGASNLASGVSSRFKGSGSGTDYTLTISGVQCDDAATYYCQCTYFSSSYVGGFGGGTEVVVK
–	binds	Rabbit anti-NfL mAb (antibody, V domains shown, Rabbit monoclonal antibody developed earlier by the applicant; Used as the fixed capture antibody (coupled to magnetic beads in the chemiluminescence assay); also called 包被抗体; 配对抗体) VH: QSVEESGGRLVTPGTPLTLTCTASGIDLSNYAMNWVHQAPGKGLEWIAIIYASGSTYYTTWAKGRFTISKTSSTTVDLKITSPTTEDTATYFCARALSMTNVYTFNIWGPGTLVTVSS VL: DVVMTQTPASVSEPVGGTVTIKCQASQNIYNNLAWYQQKPGQPPKLLIYKASTLASGVSSRFKGSGSGTEFTLTISDLECADAATYYCQCTYGSSYVAFGGGTEVVVK
